According to patent publication US20140105889A1 (published 2014):
Each block holds one binder with its values, some of them ahead of it.

Assays:
human FcγRIIIa(F) [1] = molecular target: T1, human FcγRIIIa(F) (human, UniProt P08637 17-208, limits assumed); assay: SPR (Biacore), antibody captured, FcγR as analyte
T1 construct: also called FcgRIIIaF; FcγRIIIa allotype F158
T1 sequence (P08637 other isoform, or with tags, fused parts or gaps limits assumed): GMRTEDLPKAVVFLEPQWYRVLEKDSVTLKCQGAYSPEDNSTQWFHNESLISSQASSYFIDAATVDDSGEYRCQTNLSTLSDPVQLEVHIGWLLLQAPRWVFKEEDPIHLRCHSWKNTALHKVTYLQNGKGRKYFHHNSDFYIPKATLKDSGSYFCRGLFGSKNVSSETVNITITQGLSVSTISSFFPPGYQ
Protocol: Interaction between each modified antibody and Fcγ receptor prepared in the manner described above was analyzed using the Biacore T100 (GE Healthcare), Biacore T200 (GE Healthcare), Biacore A100 or Biacore 4000. HBS-EP+ (GE Healthcare) was used for the running buffer, and measurements were carried out at 25° C. The chips used were chips in which antigen peptides, Protein A (Thermo Scientific), Protein A/G (Thermo Scientific) or Protein L (ACTIGEN or BioVision) were immobilized on the Series S Sensor Chip CM5 (GE Healthcare) or Series S Sensor Chip CM4 (GE Healthcare) by amine coupling, or chips in which preliminarily biotinylated antigen peptides were allowed to interact and then immobilized on the Series S Sensor Chip SA (certified) (GE Healthcare). The target antibodies were captured on these sensor chips, Fcγ receptor diluted with the running buffer was allowed to interact, followed by measurement of the amount of bound antibody. The amounts bound were compared between antibodies. However, since the amount of Fcγ receptor bound depends on the amount of captured antibody, the values used for comparison were first corrected by dividing the amount of Fcγ receptor bound by the captured amount of each antibody. Through reaction with 10 mM glycine-HCl at pH 1.5, the sensor chips were regenerated by washing off antibody captured on the sensor chips and used repeatedly.
Binding strength was evaluated according to the following method based on the results of analyzing the interaction with each FcγR. […] That value was then further multiplied by 100, and the resulting value was used as an indicator of relative binding activity to each FcγR.

human FcγRIIIa(F) [2] = molecular target: T2, human FcγRIIIa(F) (human, UniProt P08637 17-208, limits assumed); assay: SPR (Biacore), captured antibody, FcγR analyte; bound amount relative to GpH7-B3/GpL16-k0 x100;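 note: receptor response divided by the antibody amount captured on the chip before comparison with the reference antibody, measured at 25 °C in HBS-EP+ running buffer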
T2 construct: also called FcgRIIIaF; FcγRIIIa allotype F158
T2 sequence (P08637 other isoform, or with tags, fused parts or gaps limits assumed): as above

relative binding activity (amount bound / amount bound by GpH7-B3/GpL16-k0 x100) (human FcγRIIIa(F) [1]): 23 % of GpH7-B3/GpL16-k0
B1: GpH7-B3 D270A / GpL16-k0 (antibody, human IgG1)
heavy: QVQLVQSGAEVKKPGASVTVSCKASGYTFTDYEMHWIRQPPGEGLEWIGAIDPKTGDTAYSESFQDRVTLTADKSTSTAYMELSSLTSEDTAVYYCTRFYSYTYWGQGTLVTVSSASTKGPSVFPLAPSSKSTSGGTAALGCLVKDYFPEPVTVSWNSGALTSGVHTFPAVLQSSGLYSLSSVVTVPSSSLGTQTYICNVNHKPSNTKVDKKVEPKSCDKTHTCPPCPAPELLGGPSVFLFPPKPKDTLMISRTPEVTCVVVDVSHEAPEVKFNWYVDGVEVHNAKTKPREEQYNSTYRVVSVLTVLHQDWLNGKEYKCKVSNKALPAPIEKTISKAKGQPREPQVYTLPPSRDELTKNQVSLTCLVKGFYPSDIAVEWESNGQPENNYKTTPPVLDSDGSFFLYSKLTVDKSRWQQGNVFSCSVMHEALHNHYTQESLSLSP
light: DIVMTQSPLSLPVTPGEPASISCQASESLVHSNRNTYLHWYLQKPGQSPQLLIYKVSNRFSGVPDRFSGSGSGTDFTLKISRVEAEDVGVYYCSQNTHVPPTFGQGTKVEIE
notes: B3 variant: anti-glypican-3 IgG1 (constant region B3 = G1d with K439E) with one substitution, EU numbering; also called B3 variant D270A; copies: 2 + 2

relative binding activity (human FcγRIIIa(F) [2]): 35 % of GpH7-B3/GpL16-k0
B2: GpH7-B3/GpL16-k0 with Y300K introduced into GpH7-B3 (antibody, human IgG1)
heavy: not shown
light: B1 light
notes: Anti-glypican-3 human IgG1; constant region B3 (G1d with K439E); Fc variant; also called B3 variant; copies: 2 + 2

relative binding activity (amount bound / amount bound by GpH7-B3/GpL16-k0 x100) (human FcγRIIIa(F) [1]): 13 % of GpH7-B3/GpL16-k0
B3: GpH7-B3 D270N / GpL16-k0 (antibody, human IgG1)
heavy: not shown
light: B1 light
notes: B3 variant: anti-glypican-3 IgG1 (constant region B3 = G1d with K439E) with one substitution, EU numbering; also called B3 variant D270N; copies: 2 + 2

relative binding activity (amount bound / amount bound by GpH7-B3/GpL16-k0 x100) (human FcγRIIIa(F) [1]): 31 % of GpH7-B3/GpL16-k0
B4: GpH7-B3 P271T / GpL16-k0 (antibody, human IgG1)
heavy: not shown
light: B1 light
notes: B3 variant: anti-glypican-3 IgG1 (constant region B3 = G1d with K439E) with one substitution, EU numbering; also called B3 variant P271T; copies: 2 + 2

relative binding activity (amount bound / amount bound by GpH7-B3/GpL16-k0 x100) (human FcγRIIIa(F) [1]): 23 % of GpH7-B3/GpL16-k0
B5: GpH7-B3 D270I / GpL16-k0 (antibody, human IgG1)
heavy: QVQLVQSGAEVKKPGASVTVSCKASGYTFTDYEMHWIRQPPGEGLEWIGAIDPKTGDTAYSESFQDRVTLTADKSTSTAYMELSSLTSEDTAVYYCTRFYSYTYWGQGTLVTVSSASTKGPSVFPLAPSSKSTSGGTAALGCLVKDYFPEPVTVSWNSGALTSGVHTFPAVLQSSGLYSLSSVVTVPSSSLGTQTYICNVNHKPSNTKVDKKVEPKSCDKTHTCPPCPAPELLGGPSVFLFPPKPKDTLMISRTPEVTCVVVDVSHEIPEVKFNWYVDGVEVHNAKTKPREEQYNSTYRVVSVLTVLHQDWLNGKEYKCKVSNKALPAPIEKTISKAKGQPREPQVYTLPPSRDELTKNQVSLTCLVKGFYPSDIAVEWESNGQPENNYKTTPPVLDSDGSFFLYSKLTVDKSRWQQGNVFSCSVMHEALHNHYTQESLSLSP
light: B1 light
notes: B3 variant: anti-glypican-3 IgG1 (constant region B3 = G1d with K439E) with one substitution, EU numbering; also called B3 variant D270I; copies: 2 + 2

relative binding activity (amount bound / amount bound by GpH7-B3/GpL16-k0 x100) (human FcγRIIIa(F) [1]): 11 % of GpH7-B3/GpL16-k0
B6: GpH7-B3 D270H / GpL16-k0 (antibody, human IgG1)
heavy: not shown
light: B1 light
notes: B3 variant: anti-glypican-3 IgG1 (constant region B3 = G1d with K439E) with one substitution, EU numbering; also called B3 variant D270H; copies: 2 + 2

relative binding activity (amount bound / amount bound by GpH7-B3/GpL16-k0 x100) (human FcγRIIIa(F) [1]): 19 % of GpH7-B3/GpL16-k0
B7: GpH7-B3 D270V / GpL16-k0 (antibody, human IgG1)
heavy: not shown
light: B1 light
notes: B3 variant: anti-glypican-3 IgG1 (constant region B3 = G1d with K439E) with one substitution, EU numbering; also called B3 variant D270V; copies: 2 + 2

relative binding activity (amount bound / amount bound by GpH7-B3/GpL16-k0 x100) (human FcγRIIIa(F) [1]): 38 % of GpH7-B3/GpL16-k0
B8: GpH7-B3 Y296R / GpL16-k0 (antibody, human IgG1)
heavy: not shown
light: B1 light
notes: B3 variant: anti-glypican-3 IgG1 (constant region B3 = G1d with K439E) with one substitution, EU numbering; also called B3 variant Y296R; copies: 2 + 2

relative binding activity (amount bound / amount bound by GpH7-B3/GpL16-k0 x100) (human FcγRIIIa(F) [1]): 76 % of GpH7-B3/GpL16-k0
B9: GpH7-B3 P271R / GpL16-k0 (antibody, human IgG1)
heavy: not shown
light: B1 light
notes: B3 variant: anti-glypican-3 IgG1 (constant region B3 = G1d with K439E) with one substitution, EU numbering; also called B3 variant P271R; copies: 2 + 2

relative binding activity (amount bound / amount bound by GpH7-B3/GpL16-k0 x100) (human FcγRIIIa(F) [1]): 25 % of GpH7-B3/GpL16-k0
B10: GpH7-B3 S298K / GpL16-k0 (antibody, human IgG1)
heavy: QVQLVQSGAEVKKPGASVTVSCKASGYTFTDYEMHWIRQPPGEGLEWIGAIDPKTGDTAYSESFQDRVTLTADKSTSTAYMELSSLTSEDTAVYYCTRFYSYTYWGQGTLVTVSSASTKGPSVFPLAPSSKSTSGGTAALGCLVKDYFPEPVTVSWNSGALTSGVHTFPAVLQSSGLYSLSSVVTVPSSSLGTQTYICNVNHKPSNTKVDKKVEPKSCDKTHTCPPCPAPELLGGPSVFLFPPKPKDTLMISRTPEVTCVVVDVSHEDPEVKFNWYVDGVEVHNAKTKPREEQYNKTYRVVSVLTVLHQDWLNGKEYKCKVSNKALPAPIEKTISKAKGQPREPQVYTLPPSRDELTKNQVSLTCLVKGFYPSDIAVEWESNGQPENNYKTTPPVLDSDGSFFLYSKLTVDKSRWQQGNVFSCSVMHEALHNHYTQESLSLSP
light: B1 light
notes: B3 variant: anti-glypican-3 IgG1 (constant region B3 = G1d with K439E) with one substitution, EU numbering; also called B3 variant S298K; copies: 2 + 2

relative binding activity (amount bound / amount bound by GpH7-B3/GpL16-k0 x100) (human FcγRIIIa(F) [1]): 33 % of GpH7-B3/GpL16-k0
B11: GpH7-B3 D270L / GpL16-k0 (antibody, human IgG1)
heavy: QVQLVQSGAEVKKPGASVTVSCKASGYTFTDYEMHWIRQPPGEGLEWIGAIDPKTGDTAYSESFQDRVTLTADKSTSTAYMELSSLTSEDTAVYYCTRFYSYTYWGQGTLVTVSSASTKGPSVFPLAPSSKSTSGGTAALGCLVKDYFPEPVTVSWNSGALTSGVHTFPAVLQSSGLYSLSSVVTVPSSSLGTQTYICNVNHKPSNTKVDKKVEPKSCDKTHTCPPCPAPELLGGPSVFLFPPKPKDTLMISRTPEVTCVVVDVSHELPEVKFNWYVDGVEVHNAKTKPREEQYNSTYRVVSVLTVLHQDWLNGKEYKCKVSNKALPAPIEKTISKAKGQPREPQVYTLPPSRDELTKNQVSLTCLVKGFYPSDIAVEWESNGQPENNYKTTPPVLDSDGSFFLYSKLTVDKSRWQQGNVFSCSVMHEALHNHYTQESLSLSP
light: B1 light
notes: B3 variant: anti-glypican-3 IgG1 (constant region B3 = G1d with K439E) with one substitution, EU numbering; also called B3 variant D270L; copies: 2 + 2

relative binding activity (amount bound / amount bound by GpH7-B3/GpL16-k0 x100) (human FcγRIIIa(F) [1]): -1 % of GpH7-B3/GpL16-k0
B12: GpH7-B3 Y300P / GpL16-k0 (antibody, human IgG1)
heavy: not shown
light: B1 light
notes: B3 variant: anti-glypican-3 IgG1 (constant region B3 = G1d with K439E) with one substitution, EU numbering; also called B3 variant Y300P; copies: 2 + 2

relative binding activity (amount bound / amount bound by GpH7-B3/GpL16-k0 x100) (human FcγRIIIa(F) [1]): 12 % of GpH7-B3/GpL16-k0
B13: GpH7-B3 D270F / GpL16-k0 (antibody, human IgG1)
heavy: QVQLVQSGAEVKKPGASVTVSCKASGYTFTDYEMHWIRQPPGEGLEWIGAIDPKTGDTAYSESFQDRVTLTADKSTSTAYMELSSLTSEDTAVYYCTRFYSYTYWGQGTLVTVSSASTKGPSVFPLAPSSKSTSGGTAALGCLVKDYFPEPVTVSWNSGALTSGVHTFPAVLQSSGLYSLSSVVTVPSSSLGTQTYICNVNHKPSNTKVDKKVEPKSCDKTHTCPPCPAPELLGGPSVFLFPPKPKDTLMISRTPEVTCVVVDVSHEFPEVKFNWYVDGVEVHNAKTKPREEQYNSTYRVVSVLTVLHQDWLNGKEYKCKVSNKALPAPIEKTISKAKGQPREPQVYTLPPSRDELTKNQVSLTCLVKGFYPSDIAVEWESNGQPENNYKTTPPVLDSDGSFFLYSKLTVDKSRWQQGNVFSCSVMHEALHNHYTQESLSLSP
light: B1 light
notes: B3 variant: anti-glypican-3 IgG1 (constant region B3 = G1d with K439E) with one substitution, EU numbering; also called B3 variant D270F; copies: 2 + 2

relative binding activity (amount bound / amount bound by GpH7-B3/GpL16-k0 x100) (human FcγRIIIa(F) [1]): 49 % of GpH7-B3/GpL16-k0
B14: GpH7-B3 D270Q / GpL16-k0 (antibody, human IgG1)
heavy: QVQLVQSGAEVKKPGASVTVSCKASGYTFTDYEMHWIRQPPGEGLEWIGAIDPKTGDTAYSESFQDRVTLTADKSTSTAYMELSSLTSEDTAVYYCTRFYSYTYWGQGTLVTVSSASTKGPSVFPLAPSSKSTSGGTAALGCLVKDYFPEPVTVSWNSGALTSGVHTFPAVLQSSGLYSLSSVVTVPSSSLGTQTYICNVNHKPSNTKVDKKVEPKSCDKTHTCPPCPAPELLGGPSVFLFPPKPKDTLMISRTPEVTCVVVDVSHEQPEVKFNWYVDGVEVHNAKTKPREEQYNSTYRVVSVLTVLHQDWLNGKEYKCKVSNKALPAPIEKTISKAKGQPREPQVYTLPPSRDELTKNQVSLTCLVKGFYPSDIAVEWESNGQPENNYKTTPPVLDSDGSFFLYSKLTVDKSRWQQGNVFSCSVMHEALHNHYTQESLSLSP
light: B1 light
notes: B3 variant: anti-glypican-3 IgG1 (constant region B3 = G1d with K439E) with one substitution, EU numbering; also called B3 variant D270Q; copies: 2 + 2

relative binding activity (amount bound / amount bound by GpH7-B3/GpL16-k0 x100) (human FcγRIIIa(F) [1]): 17 % of GpH7-B3/GpL16-k0
B15: GpH7-B3 D270S / GpL16-k0 (antibody, human IgG1)
heavy: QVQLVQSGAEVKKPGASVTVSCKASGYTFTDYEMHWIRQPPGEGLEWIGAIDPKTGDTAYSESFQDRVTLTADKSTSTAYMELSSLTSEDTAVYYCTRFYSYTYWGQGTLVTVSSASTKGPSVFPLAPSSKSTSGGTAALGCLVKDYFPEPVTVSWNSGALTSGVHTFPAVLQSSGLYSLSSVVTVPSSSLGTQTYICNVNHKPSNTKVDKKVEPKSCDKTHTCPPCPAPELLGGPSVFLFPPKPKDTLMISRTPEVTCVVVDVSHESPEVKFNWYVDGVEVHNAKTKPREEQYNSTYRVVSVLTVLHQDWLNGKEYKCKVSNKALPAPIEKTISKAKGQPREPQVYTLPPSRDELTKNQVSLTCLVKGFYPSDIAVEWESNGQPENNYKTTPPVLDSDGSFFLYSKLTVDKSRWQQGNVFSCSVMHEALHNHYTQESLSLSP
light: B1 light
notes: B3 variant: anti-glypican-3 IgG1 (constant region B3 = G1d with K439E) with one substitution, EU numbering; also called B3 variant D270S; copies: 2 + 2

relative binding activity (amount bound / amount bound by GpH7-B3/GpL16-k0 x100) (human FcγRIIIa(F) [1]): 20 % of GpH7-B3/GpL16-k0
B16: GpH7-B3 S298R / GpL16-k0 (antibody, human IgG1)
heavy: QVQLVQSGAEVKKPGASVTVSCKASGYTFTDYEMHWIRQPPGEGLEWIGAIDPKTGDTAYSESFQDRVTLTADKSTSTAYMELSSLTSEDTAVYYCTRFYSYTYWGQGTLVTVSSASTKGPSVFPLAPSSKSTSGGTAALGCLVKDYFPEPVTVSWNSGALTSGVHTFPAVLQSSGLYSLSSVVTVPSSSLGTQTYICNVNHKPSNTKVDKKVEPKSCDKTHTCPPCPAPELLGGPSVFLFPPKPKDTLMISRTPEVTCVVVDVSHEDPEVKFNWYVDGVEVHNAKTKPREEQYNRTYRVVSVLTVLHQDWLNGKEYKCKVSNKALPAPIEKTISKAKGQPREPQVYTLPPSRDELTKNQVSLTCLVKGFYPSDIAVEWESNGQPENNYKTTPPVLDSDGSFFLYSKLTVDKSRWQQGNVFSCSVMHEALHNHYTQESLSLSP
light: B1 light
notes: B3 variant: anti-glypican-3 IgG1 (constant region B3 = G1d with K439E) with one substitution, EU numbering; also called B3 variant S298R; copies: 2 + 2

relative binding activity (amount bound / amount bound by GpH7-B3/GpL16-k0 x100) (human FcγRIIIa(F) [1]): 29 % of GpH7-B3/GpL16-k0
B17: GpH7-B3 D270M / GpL16-k0 (antibody, human IgG1)
heavy: not shown
light: B1 light
notes: B3 variant: anti-glypican-3 IgG1 (constant region B3 = G1d with K439E) with one substitution, EU numbering; also called B3 variant D270M; copies: 2 + 2

relative binding activity (amount bound / amount bound by GpH7-B3/GpL16-k0 x100) (human FcγRIIIa(F) [1]): 11 % of GpH7-B3/GpL16-k0
B18: GpH7-B3 S298W / GpL16-k0 (antibody, human IgG1)
heavy: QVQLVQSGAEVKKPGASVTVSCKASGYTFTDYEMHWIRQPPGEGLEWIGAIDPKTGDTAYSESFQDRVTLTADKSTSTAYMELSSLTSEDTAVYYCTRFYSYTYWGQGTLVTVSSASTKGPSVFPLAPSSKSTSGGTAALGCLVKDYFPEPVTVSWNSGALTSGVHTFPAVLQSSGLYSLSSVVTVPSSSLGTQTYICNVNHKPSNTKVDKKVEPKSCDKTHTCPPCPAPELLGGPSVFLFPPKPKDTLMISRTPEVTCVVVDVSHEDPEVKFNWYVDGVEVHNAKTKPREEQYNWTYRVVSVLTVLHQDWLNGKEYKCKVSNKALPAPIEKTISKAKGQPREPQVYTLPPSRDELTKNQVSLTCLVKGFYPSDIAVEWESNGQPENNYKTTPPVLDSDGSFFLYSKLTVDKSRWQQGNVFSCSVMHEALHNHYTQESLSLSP
light: B1 light
notes: B3 variant: anti-glypican-3 IgG1 (constant region B3 = G1d with K439E) with one substitution, EU numbering; also called B3 variant S298W; copies: 2 + 2

relative binding activity (amount bound / amount bound by GpH7-B3/GpL16-k0 x100) (human FcγRIIIa(F) [1]): 87 % of GpH7-B3/GpL16-k0
B19: GpH7-B3 Q295S / GpL16-k0 (antibody, human IgG1)
heavy: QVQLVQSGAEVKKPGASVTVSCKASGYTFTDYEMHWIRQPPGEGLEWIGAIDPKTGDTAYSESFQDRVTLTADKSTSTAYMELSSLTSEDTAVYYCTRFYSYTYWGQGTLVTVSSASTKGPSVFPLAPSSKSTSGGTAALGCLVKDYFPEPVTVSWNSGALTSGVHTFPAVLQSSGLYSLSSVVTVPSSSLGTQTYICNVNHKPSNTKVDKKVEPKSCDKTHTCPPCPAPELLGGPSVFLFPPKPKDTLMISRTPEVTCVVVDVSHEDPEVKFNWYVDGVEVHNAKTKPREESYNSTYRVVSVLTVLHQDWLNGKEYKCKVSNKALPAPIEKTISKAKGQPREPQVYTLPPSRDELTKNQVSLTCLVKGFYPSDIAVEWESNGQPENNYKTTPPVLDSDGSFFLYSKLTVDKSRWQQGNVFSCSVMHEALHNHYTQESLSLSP
light: B1 light
notes: B3 variant: anti-glypican-3 IgG1 (constant region B3 = G1d with K439E) with one substitution, EU numbering; also called B3 variant Q295S; copies: 2 + 2

relative binding activity (human FcγRIIIa(F) [2]): 7 % of GpH7-B3/GpL16-k0
B20: GpH7-B3/GpL16-k0 with P329V introduced into GpH7-B3 (antibody, human IgG1)
heavy: not shown
light: B1 light
notes: as for B2

relative binding activity (amount bound / amount bound by GpH7-B3/GpL16-k0 x100) (human FcγRIIIa(F) [1]): 21 % of GpH7-B3/GpL16-k0
B21: GpH7-B3 Y296K / GpL16-k0 (antibody, human IgG1)
heavy: not shown
light: B1 light
notes: B3 variant: anti-glypican-3 IgG1 (constant region B3 = G1d with K439E) with one substitution, EU numbering; also called B3 variant Y296K; copies: 2 + 2
